Article PMC7614096, “Head-to-tail polymerization by VEL proteins underpins cold-induced Polycomb silencing in flowering control” (Cell Reports, 2022)

T1: 6xHisLip-VIN3VEL RR>AD (ITC) (Arabidopsis thaliana, UniProt Q9FIE3 529-603, R554A | R556D)
T1 construct: VEL domain of VIN3, Arabidopsis thaliana, Q9FIE3, R554A R556D; residues 529-603 by the methods' rule for pLipK-VIN3VEL ('unless specified otherwise'); also called VIN3VEL head mutant; source: E. coli BL21(DE3) pRARE2, purified (Ni-NTA, SEC); not shown: 6xHis, N-terminal, kept; lipoyl (Lip) solubility tag, N-terminal, kept
T1 sequence (looked up): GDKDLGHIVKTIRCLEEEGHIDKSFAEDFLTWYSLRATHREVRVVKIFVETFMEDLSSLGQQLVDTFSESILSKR

B1: VIN3VEL RR>AD (R554A R556D), residues 529–603, untagged (domain or fragment, Arabidopsis thaliana, UniProt Q9FIE3 529-603, looked up)
chain: GDKDLGHIVKTIRCLEEEGHIDKSFAEDFLTWYSLRATHREVRVVKIFVETFMEDLSSLGQQLVDTFSESILSKR
modifications: selenomethionine (labelling for phasing, crystals); 13C-15N double-labeled (NMR)
notes: VEL domain of VIN3, Arabidopsis thaliana, Q9FIE3, residues 529-603, R554A R556D; Used for the crystal structure 7O6U and, as 'untagged RR>AD', for NMR; also called VIN3 R554A R556D; VIN3VEL head mutant; source: E. coli BL21(DE3) pRARE2, purified (Ni-NTA, TEV cleavage, SEC); not shown: 6xHis, N-terminal, cleaved

Legend:
[1] = target: T1, 6xHisLip-VIN3VEL RR>AD (ITC); experiment: ITC; 25°C; 1 mM 6xHisLip-VIN3VEL I575D injected into 100 μM 6xHisLip-VIN3VEL RR>AD; 25 mM Tris pH 7.4, 200 mM NaCl, 0.5 mM DTT, 0.06% NaN3; head-to-tail interface between a head mutant and a tail mutant; conditions: both partners purified
[2] = target: B1; experiment: NMR titration; 300 μM 13C-15N VEL RR>AD with 100 μM unlabeled VEL I575D; peak heights in 1H-15N fast-HSQC spectra; 25 mM phosphate pH 6.7, 150 mM NaCl, 283 K; conditions: both partners purified
[3] = target: the molecule itself; experiment: crystal structure; untagged VEL domains bearing polymerization-deficient point mutations, 4–25 mg/mL, sitting-drop vapor diffusion at 18°C; SAD with selenomethionine
[4] = target: the molecule itself; experiment: SEC-MALS; Superdex200 10/300 GL in PBS with 1 mM DTT; increasing protein concentrations (2 mg/mL unless stated otherwise); self-association

Binder | binding result [3] | stoichiometry N [4] | also measured
6xHisLip-VIN3VEL I575D (ITC) (domain or fragment, Arabidopsis thaliana, UniProt Q9FIE3 529-603, looked up, VEL domain of VIN3, Arabidopsis thaliana, Q9FIE3, I575D; residues 529-603 by the methods' rule for pLipK-VIN3VEL ('unless specified otherwise'); also called VIN3VEL tail mutant; source: E. coli BL21(DE3) pRARE2, purified (Ni-NTA, SEC); not shown: 6xHis, N-terminal, kept; lipoyl (Lip) solubility tag, N-terminal, kept) GDKDLGHIVKTIRCLEEEGHIDKSFRERFLTWYSLRATHREVRVVKDFVETFMEDLSSLGQQLVDTFSESILSKR | – | – | Kd [1]: 1.16 µM
VIN3VEL I575D, untagged (domain or fragment, Arabidopsis thaliana, UniProt Q9FIE3 529-603, looked up, selenomethionine (labelling for phasing, crystals), VEL domain of VIN3, Arabidopsis thaliana, Q9FIE3, I575D; also called VIN3 I575D; VIN3VEL tail mutant; source: E. coli BL21(DE3) pRARE2, purified (Ni-NTA, TEV cleavage, SEC); not shown: 6xHis, N-terminal, cleaved) GDKDLGHIVKTIRCLEEEGHIDKSFRERFLTWYSLRATHREVRVVKDFVETFMEDLSSLGQQLVDTFSESILSKR | binds | – | binding result [2]: binds
B1 | binds | – | –
VEL1VEL I664D, residues 616–692, untagged (domain or fragment, Arabidopsis thaliana, UniProt Q9SUM4 616-692, looked up, selenomethionine (labelling for phasing), VEL domain of VEL1, Arabidopsis thaliana, Q9SUM4, residues 616-692, I664D; also called VEL1 I664D; source: E. coli BL21(DE3) pRARE2, purified (Ni-NTA, TEV cleavage, SEC); not shown: 6xHis, N-terminal, cleaved) GGTESGLEHCVKIIRQLECSGHIDKNFRQKFLTWYSLRATSQEIRVVKDFIDTFIDDPMALAEQLIDTFDDRVSIKR | binds | – | –
Lip-VEL1VEL (residues 589–692), wild type (domain or fragment, Arabidopsis thaliana, UniProt Q9SUM4 589-692, looked up, VEL domain of VEL1, Arabidopsis thaliana, Q9SUM4, residues 589-692; source: E. coli BL21(DE3) pRARE2, purified (Ni-NTA, SEC); not shown: lipoyl (Lip) solubility tag, N-terminal, kept) SDEIKNRQARIEISMKDNCNNGDHSANGGTESGLEHCVKIIRQLECSGHIDKNFRQKFLTWYSLRATSQEIRVVKIFIDTFIDDPMALAEQLIDTFDDRVSIKR | – | > 20 -mer | –
Lip-VIN3VEL (residues 500–603), wild type (domain or fragment, Arabidopsis thaliana, UniProt Q9FIE3 500-603, looked up, VEL domain of VIN3, Arabidopsis thaliana, Q9FIE3, residues 500-603; also called WT domain; source: E. coli BL21(DE3) pRARE2, purified (Ni-NTA, SEC); not shown: lipoyl (Lip) solubility tag, N-terminal, kept) GKQGGNKRFKSRTVSLNEKPEINNAANGVGDKDLGHIVKTIRCLEEEGHIDKSFRERFLTWYSLRATHREVRVVKIFVETFMEDLSSLGQQLVDTFSESILSKR | – | ~9 -mer | –
